Molecular target: thrombin (UniProt P00734;P00734 328-363;364-622)
Test: single-molecule TIRF, transient Cy3 probe binding to switch; LOD 20 pM (not a Kd); no specific signal without thrombin; 1x PBS with oxygen scavenger system, 20 nM Cy3 probe, 25 +/- 1 C; switch immobilised on PEG/biotin-PEG streptavidin glass

B1: thrombin-responsive three-way-junction molecular switch (B4 + G13 + CP1, probed by FP1) (structured_DNA)
DNA 1: TGGGATGGTTGGTGTGGTTGGCCGTACTCTATGAGCCTCTG
DNA 2: TCAGTGGGGTTGGACGGGATGGTGCCTGACCGTGT
DNA 3: TTTTTCAGAGGCTCATAGAGTACGG
DNA 4: AAACACGGATCCCATA
  binding result: binds

— PMC7006622
